Biological target: GFP-PDPK1 (human (cloned from HEK293T cells)) (UniProt O15530)
Assay: MST

Sequence of GFP-PDPK1 (human (cloned from HEK293T cells)) (O15530 whole entry): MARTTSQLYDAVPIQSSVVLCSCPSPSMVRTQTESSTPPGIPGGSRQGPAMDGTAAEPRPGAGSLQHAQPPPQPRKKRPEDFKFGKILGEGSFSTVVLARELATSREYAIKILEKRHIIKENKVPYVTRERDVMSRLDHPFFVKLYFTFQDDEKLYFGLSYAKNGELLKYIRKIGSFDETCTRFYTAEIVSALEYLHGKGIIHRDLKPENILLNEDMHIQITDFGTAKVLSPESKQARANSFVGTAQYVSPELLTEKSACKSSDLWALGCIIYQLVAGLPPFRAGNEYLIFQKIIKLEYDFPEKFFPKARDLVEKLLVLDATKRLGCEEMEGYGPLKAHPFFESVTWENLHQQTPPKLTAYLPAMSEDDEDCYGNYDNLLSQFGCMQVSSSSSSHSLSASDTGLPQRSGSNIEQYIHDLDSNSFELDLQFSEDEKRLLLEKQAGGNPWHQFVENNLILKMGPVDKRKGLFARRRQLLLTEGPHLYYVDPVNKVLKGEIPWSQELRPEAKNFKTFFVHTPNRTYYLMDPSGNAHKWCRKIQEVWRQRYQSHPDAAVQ

With “unlabeled MΔβ3-5 (MST ligand) (from UniProt P0DTC5 1-222) (domain or fragment)” the Kd was 37.8 µM.

From article PMC11484861 (Nature Communications, 2024)
